Experimental findings from patent publication EP3971294A1 are described below.

Common to all, as to assay: cell-based or functional assay
Assay [1] deals with CenNLS^GFP: Centauri fragment of superfolder GFP, HA tag, triple SV40 NLS.
Assay [2] has as its target CenNLS^NLuc: Centauri fragment of NanoLuc, HA tag, triple SV40 NLS.
Assay [3] has as its target CenNup214^NLuc: Centauri fragment of NanoLuc, HA tag, full-length Nup214 (UniProt P35658).
Chain of UniProt P35658 (P35658 whole entry, the tested form may be a part): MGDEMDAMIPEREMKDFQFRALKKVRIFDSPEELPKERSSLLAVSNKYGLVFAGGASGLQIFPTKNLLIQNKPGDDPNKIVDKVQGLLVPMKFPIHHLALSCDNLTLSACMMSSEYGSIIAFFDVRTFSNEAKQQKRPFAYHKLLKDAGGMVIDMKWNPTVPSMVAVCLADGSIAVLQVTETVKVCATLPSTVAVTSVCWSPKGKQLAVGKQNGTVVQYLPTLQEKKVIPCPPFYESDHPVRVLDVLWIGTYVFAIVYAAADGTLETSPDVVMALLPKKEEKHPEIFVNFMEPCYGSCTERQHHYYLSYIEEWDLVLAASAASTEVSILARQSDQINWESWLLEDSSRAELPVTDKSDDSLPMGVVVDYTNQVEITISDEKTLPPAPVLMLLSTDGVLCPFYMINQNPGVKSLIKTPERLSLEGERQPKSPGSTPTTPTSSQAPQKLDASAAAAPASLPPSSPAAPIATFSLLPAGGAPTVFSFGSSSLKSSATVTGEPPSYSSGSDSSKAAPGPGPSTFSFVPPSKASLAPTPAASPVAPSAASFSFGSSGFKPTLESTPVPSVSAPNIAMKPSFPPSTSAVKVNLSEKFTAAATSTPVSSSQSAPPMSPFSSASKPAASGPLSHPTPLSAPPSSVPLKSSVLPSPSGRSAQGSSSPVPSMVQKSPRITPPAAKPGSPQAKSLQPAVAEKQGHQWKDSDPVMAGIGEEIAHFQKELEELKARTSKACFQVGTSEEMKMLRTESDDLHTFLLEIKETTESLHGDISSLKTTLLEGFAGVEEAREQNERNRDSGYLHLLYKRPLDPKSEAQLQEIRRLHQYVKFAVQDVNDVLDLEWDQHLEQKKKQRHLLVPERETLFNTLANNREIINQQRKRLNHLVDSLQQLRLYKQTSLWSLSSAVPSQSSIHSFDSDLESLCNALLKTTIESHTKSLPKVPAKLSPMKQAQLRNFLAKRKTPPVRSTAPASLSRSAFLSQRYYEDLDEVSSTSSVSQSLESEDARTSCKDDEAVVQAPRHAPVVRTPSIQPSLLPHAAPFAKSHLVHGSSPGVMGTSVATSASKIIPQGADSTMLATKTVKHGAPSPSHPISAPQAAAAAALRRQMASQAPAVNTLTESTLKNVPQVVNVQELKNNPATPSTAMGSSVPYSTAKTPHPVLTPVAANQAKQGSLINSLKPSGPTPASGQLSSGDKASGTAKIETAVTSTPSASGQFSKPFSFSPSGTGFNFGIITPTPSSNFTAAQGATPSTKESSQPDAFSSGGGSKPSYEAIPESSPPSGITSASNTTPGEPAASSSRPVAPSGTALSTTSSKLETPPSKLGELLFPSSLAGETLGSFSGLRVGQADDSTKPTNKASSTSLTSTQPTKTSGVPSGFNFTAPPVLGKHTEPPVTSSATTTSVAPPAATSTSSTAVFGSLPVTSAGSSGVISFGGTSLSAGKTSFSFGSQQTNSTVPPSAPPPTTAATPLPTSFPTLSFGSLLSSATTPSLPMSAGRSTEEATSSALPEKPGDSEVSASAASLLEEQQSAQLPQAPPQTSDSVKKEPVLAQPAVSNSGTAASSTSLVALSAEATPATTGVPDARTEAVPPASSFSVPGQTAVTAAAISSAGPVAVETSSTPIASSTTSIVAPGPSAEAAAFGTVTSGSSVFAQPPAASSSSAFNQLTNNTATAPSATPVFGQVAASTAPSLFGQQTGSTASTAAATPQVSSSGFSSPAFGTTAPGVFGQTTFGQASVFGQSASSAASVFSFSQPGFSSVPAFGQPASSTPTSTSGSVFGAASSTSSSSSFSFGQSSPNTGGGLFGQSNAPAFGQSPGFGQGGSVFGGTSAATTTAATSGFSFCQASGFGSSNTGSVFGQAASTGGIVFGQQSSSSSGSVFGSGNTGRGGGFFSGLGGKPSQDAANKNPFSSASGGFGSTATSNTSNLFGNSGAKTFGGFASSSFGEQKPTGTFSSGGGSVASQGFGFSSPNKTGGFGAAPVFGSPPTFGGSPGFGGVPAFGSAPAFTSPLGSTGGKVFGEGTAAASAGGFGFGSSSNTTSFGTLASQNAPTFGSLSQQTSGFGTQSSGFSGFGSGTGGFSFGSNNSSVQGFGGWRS

In assay [1], “HIV-1 LAI integrase (IN) with α^GFP fused at its C-terminus, as carried by αHIV^GFP (from UniProt P03367 1160-1447)” came in with a fold increase in fluorescence (flow cytometry, 48 hpi) of 5 to 10 fold.
As for “HIV-1 LAI integrase (IN) with α^NLuc fused at its C-terminus, as carried by αHIV^NLuc (from UniProt P03367 1160-1447)”, in assay [2], the fold increase in emitted luminescence signal (plate luminometry) was in the range of 5 to 200 fold. The fold increase in NLuc signal in assay [3] came to 10 fold.
Consider “HIV-1 LAI integrase D116I mutant with α^NLuc fused at its C-terminus, as carried by αHIV-D116I^NLuc (from UniProt P03367 1160-1447)”, for which, in assay [2], the fold increase in NLuc compared to infection in the presence of Nevirapine was 10 fold.
The substance “IRF3α-3xFLAG: IRF3 fused to the α fragment of NanoLuc and a 3xFLAG tag (from UniProt Q14653 1-427)” displayed a αCentauri complementation, luminescence fold above uninfected controls (SeV infection, 6 h) in assay [2] of 3 to 6 fold.
